# B1: Complement factor H (Homo sapiens), P08603 (parent)
# chain: MRLLAKIICLMLWAICVAEDCNELPPRRNTEILTGSWSDQTYPEGTQAIYKCRPGYRSLGNVIMVCRKGEWVALNPLRKCQKRPCGHPGDTPFGTFTLTGGNVFEYGVKAVYTCNEGYQLLGEINYRECDTDGWTNDIPICEVVKCLPVTAPENGKIVSSAMEPDREYHFGQAVRFVCNSGYKIEGDEEMHCSDDGFWSKEKPKCVEISCKSPDVINGSPISQKIIYKENERFQYKCNMGYEYSERGDAVCTESGWRPLPSCEEKSCDNPYIPNGDYSPLRIKHRTGDEITYQCRNGFYPATRGNTAKCTSTGWIPAPRCTLKPCDYPDIKHGGLYHENMRRPYFPVAVGKYYSYYCDEHFETPSGSYWDHIHCTQDGWSPAVPCLRKCYFPYLENGYNQNYGRKFVQGKSIDVACHPGYALPKAQTTVTCMENGWSPTPRCIRVKTCSKSSIDIENGFISESQYTYALKEKAKYQCKLGYVTADGETSGSITCGKDGWSAQPTCIKSCDIPVFMNARTKNDFTWFKLNDTLDYECHDGYESNTGSTTGSIVCGYNGWSDLPICYERECELPKIDVHLVPDRKKDQYKVGEVLKFSCKPGFTIVGPNSVQCYHFGLSPDLPICKEQVQSCGPPPELLNGNVKEKTKEEYGHSEVVEYYCNPRFLMKGPNKIQCVDGEWTTLPVCIVEESTCGDIPELEHGWAQLSSPPYYYGDSVEFNCSESFTMIGHRSITCIHGVWTQLPQCVAIDKLKKCKSSNLIILEEHLKNKKEFDHNSNIRYRCRGKEGWIHTVCINGRWDPEVNCSMAQIQLCPPPPQIPNSHNMTTTLNYRDGEKVSVLCQENYLIQEGEEITCKDGRWQSIPLCVEKIPCSQPPQIEHGTINSSRSSQESYAHGTKLSYTCEGGFRISEENETTCYMGKWSSPPQCEGLPCKSPPEISHGVVAHMSDSYQYGEEVTYKCFEGFGIDGPAIAKCLGEKWSHPPSCIKTDCLSLPSFENAIPMGEKKDVYKAGEQVTYTCATYYKMDGASNVTCINSRWTGRPTCRDTSCVNPPTVQNAYIVSRQMSKYPSGERVRYQCRSPYEMFGDEEVMCLNGNWTEPPQCKDSTGKCGPPPPIDNGDITSFPLSVYAPASSVEYQCQNLYQLEGNKRITCRNGQWSEPPKCLHPCVISREIMENYNIALRWTAKQKLYSRTGESVEFVCKRGYRLSSRSHTLRTTCWDGKLEYPTCAKR
# Variants of: B1
# Conditions: with ptx3_human PTX3, P26022
# Chain of ptx3_human PTX3, P26022 (P26022 whole entry): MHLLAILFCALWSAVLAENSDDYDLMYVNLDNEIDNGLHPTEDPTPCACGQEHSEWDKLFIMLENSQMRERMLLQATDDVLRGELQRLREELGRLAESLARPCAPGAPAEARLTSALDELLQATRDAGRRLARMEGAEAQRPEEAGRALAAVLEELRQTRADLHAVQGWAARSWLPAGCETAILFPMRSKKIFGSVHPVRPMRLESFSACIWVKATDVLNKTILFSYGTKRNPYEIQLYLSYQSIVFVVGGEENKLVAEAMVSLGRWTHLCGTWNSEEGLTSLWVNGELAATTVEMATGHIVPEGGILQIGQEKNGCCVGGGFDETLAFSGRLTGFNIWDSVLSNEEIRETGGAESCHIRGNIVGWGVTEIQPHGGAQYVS
row,effect of a mutation on the interaction,Variant
1,with no effect,Y402H

# — IntAct's records for PubMed 19050261
